Results from the RNAGym collection of RNA variant scans (doi:10.7554/elife.90254).

B1: OR4K15 (parent)
chain: GUUAACGGUCAUAGGCCAUGGAAACUAGGAGCACCAUUUCGCUGCCAGUGAAGAAAUGAACAAAGAAAAUCUGGGCCAGGCAGGCAUCAAAAGAAAUAGUCUUGCGCUCAACCAGAAAGUCUGUAAUCAUUUUAAGGGUA

Variants of: B1
Experiment: self-cleavage, relative activity (ratio to wild type); higher = more cleavage; in vitro, sequencing; the parent is a self-cleaving ribozyme

Variant | self-cleavage
U100C U122G | 2.48
A66G U124A | 1.19
U12C A68G | 1.21
A22G U130C | 0.3
A66G U127C | 1.11
U26A A140G | 2.37
A118G A134G | 0.71
U38A G75C | 0.03
A86G A135G | 0.99
A33C | 1.35
A117G U132A | 1.62
A89U G119A | 2.37
U103G U122C | 0.01
G31U A110G | 0.24
A56C A62G | 0.6
A23U A91G | 0.79
A56G A134G | 1.2
G14U A89G | 1.39
A4G C85U | 0.99
A5G U57A | 1.09
C34U U124A | 0.3

Variant | self-cleavage
A52U A125G | 0.79
U9C A125G | 0.66
U26C U70C | 0.38
A60U G83A | 1.65
C85U A134G | 2.28
G21A U72C | 0.3
A96C U102C | 2.16
U3C A30U | 1.37
C6A A67G | 0.72
U12A U130C | 1.21
U43A U57A | 1.79
U38C G137U | 2.1
A68G U72C | 0.29
A18U C101A | 0.05
A89U G104C | 0.01
G80C U103C | 0.03
A64G A89U | 2.18
U9C U19A | 1.65
A30C G75C | 0.12
U19A U131A | 0.78
A78U A111U | 0.04

Variant | self-cleavage
C85A A98U | 1.17
A54C A118G | 1.49
A36G G84A | 1.88
A89U A126U | 0.65
U72A U139C | 0.23
U124C A129U | 0.94
A51G A96G | 1.47
U87C A125U | 1.74
A24U U120C | 0.8
G50U A62C | 2.27
A23G U70A | 0.97
G41A G136A | 1.2
U57A A129G | 0.9
A51G U131A | 0.59
A4C A24G | 0.75
A82U A96U | 0.25
A30U G79U | 0.09
C17U A66G | 1.68
U103C U132C | 0.85
A110G U130C | 0.09
G7A U100A | 0.82

Variant | self-cleavage
U43C A63G | 1.8
G73A U127C | 0.11
A18G U127C | 1.53
A95U A117G | 2.29
G20U A82U | 0.2
A111G A118G | 0.01
A27G A59G | 1.03
G99A A111G | 0.02
A52G A55G | 0.97
U49A A94G | 1.11
C16U U72A | 0.53
A110C | 0.31
A30G A135G | 1.51
A111G U120A | 0
A68U A96G | 1.98
A63U U127C | 1.25
A89G A98G | 0.67
U9C A52C | 1.39
U57A A96C | 0.99
A36G A91G | 0.95
